1 molecule from patent US6656718B2, “Modified carboxypeptidase enzymes and their use” (Cancer Research Technology Limited, priority 2000, dated 2003) can be followed below.

In one data set the test system is CM79. Nature of the data set: CM79 binding to CPG2 variants by ELISA. Also noted: species or system mice. The note with it: clarified culture supernatants. From the text:
CM79 binding and CPG2 enzyme activity of all CPG2 variants were initially tested in clarified culture supernatants for CM79 binding.
For orientation: An ELISA detects its analyte on a solid surface through an enzyme-linked reagent.

Data set [1] is described as follows: CPG2 enzyme activity of variants. In kind it is biochemical. The note with it: clarified culture supernatants. The source says:
Thus for example, CPG2 activity may be tested by the ability of the enzyme to hydrolyse methotrexate (MTX). CPG2 hydrolysis of MTX results in a change in absorbance at 320 nm which may be measured by spectrophotometry. CPG2 catalytic activity in solid tissues can be assayed using an indirect HPLC method, measuring, for example, 2,4-diamino-N^10 methypteroic acid (DAMPA, a metabolite of MTX).
CM79 binding and CPG2 enzyme activity of all CPG2 variants were initially tested in clarified culture supernatants for CM79 binding. […] The variant V8 MFE-23::CPG2 indicated the role of the c-terminus in CM79 binding of CPG2 (FIG. 4, Table 1). CM79 bound to all the remaining CPG2 variants (Table 1).
Radiolabelled proteins were FPLC purified using a Superose 12 column (Pharmacia; PBS mobile phase 0.5 ml/min). Gamma radiation emitting fractions at 135 kDa elution point were tested for CPG2 enzyme activity. Protein concentrations were determined using Lowry reagent according to the manufacturer's protocol (BioRad).

B1: wild-type CPG2: MFE-23::CPG2 fusion protein with wild-type CPG2: Region 1 KEYGVRD (SEQ ID NO:2), Region 2 GAGK (SEQ ID NO:4) (protein)
chain: ALAQKRDNVLFQAATDEQPAVIKTLEKLVNIETGTGDAEGIAAAGNFLEAELKNLGFTVTRSKSAGLVVGDNIVGKIKGRGGKNLLLMSHMDTVYLKGILAKAPFRVEGDKAYGPGIADDKGGNAVILHTLKLLKEYGVRDYGTITVLFNTDEEKGSFGSRDLIQEEAKLADYVLSFEPTSAGDEKLSLGTSGIAYVQVNITGKASHAGAAPELGVNALVEASDLVLRTMNIDDKAKNLRFNWTIAKAGNVSNIIPASATLNADVRYARNEDFDAAMKTLEERAQQKKLPEADVKVIVTRGRPAFNAGEGGKKLVDKAVAYYKEAGGTLGVEERTGGGTDAAYAALSGKPVIESLGLPGFGYHSDKAEYVDISAIPRRLYMAARLIMDLGAGK
As to B1, the CM79 binding result in the data set with CM79 is reported as “Yes”. For the same molecule, the “Enzyme Activity” value in data set [1] is “Yes”.
